Measured values from the domain aggregation screens of Martell et al. (2025).

Experiment: soluble fraction after stress (log2 fold change); higher = more stays soluble; pooled small domains, quantitative proteomics
Conditions: stress: pH 4
In short: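 After pH 4 stress, pooled custom libraries of small protein domains were quantified with high-throughput quantitative proteomics. Aggregation propensity is taken from the fold change in each domain's soluble amount following the acid stress. The scale is log2, where higher values mean more stayed soluble.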

| Sequence | soluble fraction (log2) |
| --- | --- |
| HMNDITVNVEDSKLIVTSNNPEKLPLYIMDIQGHILDKSEITAGTYSFPISDRGTYIVRIGENVYKVI | 0.186 |
| HMNDLKVGELAKRGNVTAETVRHYTREGLLSPTRHPDNGYQLFSATDLERLHFIQRARKLGFSVAEIRDIL | -0.278 |
| HMNDLVTWDRYKIELGDTLSEIAQKLVTRVDILKTVNQIQGTRIIAGNSLMVPRTTDTNVLTYL | -0.728 |
| HMNDPIGDMLTRIRNAQMRGKSTVSTPASKLRAWVLEVLASEGYIRGFERATTDNGQGELVISLD | -0.253 |
| HMNDREAAYEDLPDELVRVGQKVFIKSLETEGVIVQPPNKKGEVRVRSGNISTNVKRSDLGLPIEKP | 0.149 |
| HMNDRRQDVFELLKSSERPVSAADLAHKFGVTRQVIVADIALLRASDIDIVSTNRGYILKANL | 0.0252 |
| HMNDYNLTDREKEVLTFLFQGLEYKEIGMKMSVSPNTIRNHISNIYKKLHVTSKTQAIRVFLNN | -0.0426 |
| HMNEAMIMIDLKGKSRDEAVKELDELNLKYRFTGNGIVKDQKPKAGEEINSDTVVEVELSEIK | -0.105 |
| HMNEDYFTIAGYASLRGVNIDTSKANMLGRKATKLSREYGYDIGKVTDTRFGKVNSYHLDILKSIFEF | -0.646 |
| HMNEFSYLSELGSEKGDLIKGLQLVQSREGYVSDDAIRAISKHFSIAEAEVEGVLTFYAQFK | -1.25 |
| HMNEIESFSNTKNPFSLTFKTSKDSSYKVEASSNLKKWTTLSQIKGTGNPITFTESRRILFRKQYYRVTLS | 0.102 |
| HMNEISFYPNPAKESLTVKGLSEITSYSISDINGKLIQYGTTFDRINLEKLTKGFYFLTIGNTISKKLIV | -0.0595 |
| HMNEISLKEITIEEDHPWRDKKIKELDLKEHILVAMIRRKDQDIIPNGETKIYKDDILVIYD | -1.73 |
| HMNEKFNVYPIPVYNNLNITGLSKPVTYLISSIDGKTIKNGVFQESIDVSDLKSGLYFLQVETKDPVKFIK | -0.999 |
| HMNEKLNEYLNQVKAYLNTSDNKEDIIKELEAVVLEKAEKKYGQITDESISKILSEFGSPAEVAKEYS | -0.103 |
| HMNEKLRNYIDTLFEHAPTTVRAVELKEEMFQNLTDKYNDLIAQGKSEEAAFNIAVASIGDVDSLIAGLS | -0.459 |
| HMNELGSLIKRKREELGLSQEELARILGYKHKSSINKIELGLADVPRTKVPAFAKALGMTPVEFS | 0.063 |
| HMNELPSVIIMKNGRTRPYELQEISKDEEWLNQTIREHGIEPKDIFIAEFWDGRTAFILNDGRIVK | -1.14 |
| HMNERIKSLRKALGLTQQEFADKLGISRGNIGAYEVGKNAPSDAVISLIVRIFNTNENWLRTGEGEM | -0.246 |
| HMNETSRTRALNILGLKATATQEDIKKAYRSLAKEYHPDKLVGVSEGVKKISEEKFREINEAYEYLI | -0.00502 |
| HMNEVIIKNWSNAVGRNIKIKTKRGRPIFGRLLAINDQQLTIASKYMRGNATITVAREDVVSMSVS | 0.22 |
| HMNEVRINTAHIEHKYLGEVKVLDIQEMRNARGRDADPLAFLAIRFWSPRGVLVRVKDSRDATPYWLIS | -0.227 |
| HMNEYHRNISDEEFVRDIKETAIKLKKETLTGVEYSQNGKYHASTIIHRFGSWKKALELAELNTK | 0.257 |

| Sequence | soluble fraction (log2) |
| --- | --- |
| HMNFNYPVIVKNSRINVSGVLSAAKLYTINGQLLQSYKGSGEFTSKTLTKGIYILQVDNARTKVLV | ≥ 0.43 |
| HMNFSKEYILVHSYKEIDILDALIVKYEATLVNREFDLFINSYIKINEDYAKLFRDEIISKTSGSMSIKEL | -2.12 |
| HMNFTKHPENPNFVVYRFTDPERANSFRAELIANNISFEEDTEKKKQLIYTLFAIHTKYYNQSMQINIK | -0.0767 |
| HMNFTVTDKNAVLYSNDNTKVYESPDINSKLVTTIAKDLPVNVTGITSNGWFRISLEGTYYVPGNGLEQR | -0.251 |
| HMNGADPYEQLGVTRDASDDELKAAHRKLSRENHPDTLMAKGMPPEFIEQANDKMARINAAWDQIRKERGI | 0.124 |
| HMNGAITLRVRPSDEGKRLDVFVVSQLTGYTRSFVAGLIGDRHFLVNGQPKKPGYRIKSSDTISGVIPAPA | 0.157 |
| HMNGARALAGAIAEAIRKQVYRVNERLPAERELASHYDVSRGTLRSALALLEQEGLVTRKVGSGTFVMPP | 0.161 |
| HMNGNLRAQVLELMGRADYEPLNKSELSRKLDLQGSDRSSLRILMDELERDHSVVRLKKGRFALKVV | 0.0349 |
| HMNGQFIELKNTTGTIIEARVLSFQNGKVKLQRNDGLIFVASISIFDSESIEVIKQKVAEISESKKS | -0.0246 |
| HMNGQITPSRAKEIALGHAGVSEGSANFKKIKLDNKNGRPAYEIEFIANNSRYEFEINASNGSIIKFNK | -0.0812 |
| HMNGYGALVRLGRSRGWVTVEEINDHLPESAVRTAENVQEITEALGRLSIKVFETRPDEDDLLIT | -0.613 |
| HMNHGDATTETQAEIMAILSDMKPHPITELNTIKRPYEQIDTALTYLINEEKIYRMDGMIFIG | -0.915 |
| HMNHYTEEYILKRMKDFFTTHAYITRRDIESLFGFRRSYATKWLKHFRESGVLKQSGPVNSAVYLL | -1.12 |
| HMNIAESIRKYRKASGLTQEEMAKRLGVTTPAVSKWENGITNPDIALLAPIARLFHISVDTLLSYR | 0.0976 |
| HMNIDKLVGSTGTVVRSVTPDTAGLVRVNDEDWRASAEEILYERDAIVVEGIEGVTLIVSKLS | -1.54 |
| HMNIETHIVPKLLAPIRLQEYGVGIFNNIPTKSALKKALKKQLITVDKTVATTATFIKGGETIELAYQ | -0.299 |
| HMNIGEKIKTLRENNNISIEELAEKINDSIENILKYENNELEPTLDKKLALSIALGVTLSDLS | -0.975 |
| HMNIGELINKKRTELGLTLEEVGNAVGVSKSTVKKWEDGFISNMRRDKISKLAKVLEMNPVSLITGE | -0.0212 |
| HMNIGSKLRYLIEEANITQRQLADALHISPSALNGYINQGKEPDYATLVRIADYFHTSTDYLLGHSNIR | -0.202 |
| HMNIIATHTVPAIEQKIRLQEYAISIFPQINSRSALKKAIAKKLVLLDGERASTADWIQPGQKIELLEDK | -0.274 |
| HMNILAPFWERFGLSAFAAGNYDRAEGYFRKLEQKDPNSMSVLRNLGLILMAKGDAEGAEAYLLREEKL | -0.643 |
| HMNILKKDKRLWDENNLNKPLLFELLENYDKEIFELLLTDKDIKAKFFVQAGESYVFKYDDFRFAIEQN | -1.75 |
| HMNIMAQDWISSPMGPISFKSNQHGLVKIGWGEVPRENTEQPNLEFTRKWLVDYFEGKASPLPYF | -1.55 |

| Sequence | soluble fraction (log2) |
| --- | --- |
| HMNIQGIFGRNLKQKRLEKGMTQEQLAEKAGVSTDTVKRYESGKYDGIRLDMAWYMANALDTPLQALLPP | 0.0744 |
| HMNISALKGKIGEVYLKIPAHNAGKGKVLISLKGTHHELYAITRSGEDISSGEFVKVIEIEDEILVVEK | -0.537 |
| HMNITFAENIKQFRKAKSMSMEELGKRLGKAKSSISAWENGKRTPKINELKSISEALGVTISQLLGF | -0.293 |
| HMNIYIEFGRRLAFIRQNSKLSQSQIAQKLNIAQSTYAGYEKGVRKIPLEIIVQLSKILNISPTILILG | -0.618 |
| HMNKADFLRKLDRELSVLDQEERKEILSFYEERFYTGTNYENKTELDIINELENPEIIAKNVLEEYGV | -1.45 |
| HMNKDEFLRRLEDALSGEVPASVIRENLNYYADYLSQELGKGRTMDEIIEEIGEPNIVARTIINSAEAA | -0.602 |
| HMNKDWQDEVALQRYTMITPLLSEDLDNAKRIAMREKIAQDNLTTARSLYRYEKAYRENGFQGLRPTD | -0.262 |
| HMNKEIEDYVATYSSMKAKEAAAIFDTMTSDLDLVAKILEAMSADDRAKILEQMNEENAARLTKMMD | -0.654 |
| HMNKEQIASNIAEARKRSGLNQSELARRLGIRPQSVQQWEKGTATPKLDRLTAIAQVLGVSLESLTG | 0.22 |
| HMNKFADLAGNIIYNENGVEVFNFGKYKGQPVAEVFKKDIGYYGWIQNADFPRYTKKVFTAIQLKSK | -0.0985 |
| HMNKIDVVEVDMSKPYEDMTVTELQNVILGKLASNGPVTDQMKKDVAENIYHDSLVNWAKSF | -0.303 |
| HMNKIENLSQTILNILRKDHSQAFNYKQIAAKLQLDDPSSRNQIVKKLKDLQGKGTIQEIERGKYILTP | ≥ 0.43 |
| HMNKITIDQAKEIALNHAKLTAEQVSFIRTESEFDDGIEKYNIEFYYNNQKYDYDINAVNGQIIQYDLEG | -0.23 |
| HMNKITIEEAKSIALKHSNLDESQVSFIRSEYDFDNGIEKYEIEFYYNNNKYEYEINAKTGDIISYDYDI | -0.528 |
| HMNKKAAYKDMAGYFAEMKSKDAADILSRLKDEDIIGIFNEMPRDMVAEMLQKMDRDKATTLTRKML | 0.235 |
| HMNKKEQYQNIISNFLEKMSEEDRLIFNMHFFKSINISQIARSIDREGYYVKTKIENLLADLKSLMIGNNL | -1.17 |
| HMNKKETRLNNFIHFLKIRNSITVKEMANHLNVSEMTVRRDIKELTADHTINFENGKIMFNPQSSL | 0.33 |
| HMNKLIIDAAEDKIFFMIMNNDISYNISHENTKINFEKLIILINDFLSSKKLKINDITGLYV | -0.233 |
| HMNKNIKIPNISNLSREDAESVLKESGISVSTEIKEVESDTIEKGKVVKTEPSIGSTVKQGRTITIYISSG | 0.092 |
| HMNKRYKVQVTTDNLKIRKGAGTSYPVVGHITDKGTYTIVETSGKWGKLLSGAGWIYLSYTKK | 0.22 |
| HMNKTEIISILEKIVLPTQIRNINIFGSEVIIDLNIDNPSLHAKKKLEKSIINSFDKNHKIIINFNVE | -0.514 |
| HMNKTLTEQIYDELKSAIIELELKPGEFVTEEYLAEQLGVSRTPLKSAISKLIFEGLMAYEVGKGTYIS | -1.32 |
| HMNKVQTFIIEKHIKEVFEHTNRTYYRSGQYYFQTRDEFSMALKRFLKDREPNKKNWIDSIINRA | 0.195 |
